Source: the DeepSol protein solubility set

Assay: soluble on expression in E. coli; label from the status in PepcDB or PDB records

Sequence | soluble on expression in E. coli
GMDDETLRLQFGHLIRILPTLLEFEKKGYEPSLAEIVKASGVSEKTFFMGLKDRLIRAGLVKEETLSYRVKTLKLTEKGRRLAECLEKCRDVLGS | soluble
MKLIILDRDGVVNQDSDAFVKSPDEWIALPGSLQAIARLTQADWTVVLATNQSGLARGLFDTATLNAIHDKMHRALAQMGGVVDAIFMCPHGPDDGCACRKPLPGMYRDIARRYDVDLAGVPAVGDSLRDLQAAAQAGCAPWLVQTGNGRKTLAQGGLPEGTRVCEDLAAVAEQLLQEA | soluble
MGSDKIHHHHHHAGELNLYSMNTGSYVYHMTGNHGQYNEHFNNNFFSVERKFSQDSKYSVLVGTMKNSFDDRCLTLGVRRDWLKNDTGWVLKGVYAYTGEFFFDAFSHCGDSGTYRTAKKITGIGFSPYLYHGLQYNFTDYFGVEGGIIVPAIFVMSVQWSFR | not soluble
MNTCPLCHSTDLVAYHHDKRRPYQQCQRCALVSVPAEFYLSRDEEKAEYDKHENHPQDLGYQQFLDRTLAPLLARFESTALGLDFGCGEGKALSLMAQARGYRVENYDLYYANHPELLTRQYDFITLTEVIEHVSDADALLTQLKGMLKPKGILAVMTKRVLNPTAFSTWHYKNDPTHINFYAEATFQWLAEHYGWRLEVIDKDVVFLYQANLEHHHHHH | soluble
MAGDPMNFVTTLTYLLPHRMLSSLARHVAYCQHPLIKQWLIDTVIAKFDVNLSEAAEPDAHAYPSFNAFFTRSLKTGIRLPDPNPDTLLMPADGRISQLGPIREGRIFQAKGQSFTATELLGDTAAAAAFTNGLFATVYLSPRDYHRVHMPCTGQLLKTVHVPGRLFSVGPDAVRQIPRLFARNERLACHFDTAFGPMVLVMVGALLVSGVETVWGGVEIPAYGDRITHKDYQGRNIAIERFAEMARFNYGSTVIVLLPPNVFTLAPHLTAESPVTLGQALAHRLSLNHSTQAPTQEKLEHHHHHH | not soluble
MYIIAHRGASGYAPENTIAAFDLAVKMNADMIELDVQLTKDRQIVVIHDDRVDRTTNGSGFVKDFTLEELQKLDAGSWYGPAFQGERIPTLEAVLKRYHKKIGLLIELKGHPSQVGIEEEVGQLLGQFSFSINNIVQSFQFRSVQRFRELYPSIPTAVITRPNFGMLSRNQMKAFRSFANYVNIKHTRLNRLMIGSINKNGLNIFAWTVNNQKTAAKLQAMGVDGIVTDYPDFIIKDGKHENILEHHHHHH | not soluble
MGRKIVFFDIDGTLLDEQKQLPLSTIEAVRRLKQSGVYVAIATGRAPFMFEHVRKQLGIDSFVSFNGQYVVFEGNVLYKQPLRREKVRALTEEAHKNGHPLVFMDAEKMRASIGDHPHIHVSMASLKFAHPPVDPLYYENKDIYQALLFCRAEEEEPYVRNYPEFRFVRWHDVSTDVLPAGGSKAEGIRMMIEKLGIDKKDVYAFGDGLNDIEMLSFVGTGVAMGNAHEEVKRVADFVTKPVDKEGIWYGLKQLQLIR | soluble
MADRANNDDDVDRQPLPIADDADDDVDGIDEMFNNEDEDPEDEEGENLFGDDMERDYREQPELDQYSESGMDDASDVGSLSVSARRAAEREMAQRDQLLDDDALMYEDGDSEEVDTRRRGRGRRGRGDAADDDSVPMEEEDIPVDILENIRGRTIRDHVSDEAVAKEIERRFKNFLRSFHEPGNKQTKYIQMIKSMAADNRESLEVSFTDLSDDNGEQNISYFLPEAPNEMLAIMDRAATEVVMNMYPFYSRVCNEIKVRISQLPVEEDIRMLRQVHLNMLIRTAGVVTIASGILPQLAVVKYDCVACGYLLGPFVQQNDEEVRPTICPSCQGKGPFELNVENTVYHNYQRITMQESPNKVAAGRLPRSKDVILLGDLCDSCKPGDEIEVTGVYTNNFDGSLNYKQGFPVFNTLIHANHITNKDKMASDQLTDEDIKAIRELSQDPNISQRVFSSIAPSIYGHDDVKRAIALALFRGEAKNPGAKHRLRGDINVLLCGDPGTAKSQFLRYAAHIAPRSVLTTGQGASAVGLTAYVQRHPVTREWTLEAGAMVLADKGVCLIDEFDKMSDQDRTSIHEAMEQQSISISKAGIVTSLHARCTVIAASNPIGGRYNPTRTFAENVDLTEPILSRFDVLCVIRDSVDSVEDERLAKFVVGNHRTHHPDAKKIVKEGDELEEDQMDERTGVRLIPQDLLRKYIIYAREKCHPTLPEQHSEKFSNIFAQMRKESMATGSVAITVRHVESMIRLSEAHAKLHLRSYVNDEDCAAAIRVMLESFVNTQKASIMRMMKKTFSRHLTENRSANELLLFILKQLIRQQMHYATARAAAGTILQSVTIPESEFIEKAQQLRIENVKPFYTSEIFASNNFLYDPSKKTIVQEIF | not soluble
